# According to patent publication US20170247448A1 (INTRINSIC LIFESCIENCES, published 2017):
# B1: Human hepcidin peptide (hepcidin-25) (peptide)
# peptide: DTHFPICIFCCGCCHRSKCGMCCKT
# notes: Synthetic 25 aa peptide; also called hep-25; Hep-25
# How the values were obtained:
# Test in all cases: C-ELISA: goat anti-human Fc coated plate, antibody captured, unlabelled hepcidin titrated against a labelled tracer not named for this figure; the EC50 row has 7 cells under 8 columns and is assigned in order to the 7 antibodies with human Fc
# BAP070-hum02 = biological target: T1, BAP070-hum02
# T1 construct: Expressed as soluble IgG1 in CHO cells, tested as supernatant; The entries stop inside FR4
# BAP070-hum01 = biological target: T2, BAP070-hum01
# T2 construct: Expressed as soluble IgG1 in CHO cells, tested as supernatant; The entries stop inside FR4 (...WGQG / ...FG); also called humanized hit 1
# BAP070-hum04 = biological target: T3, BAP070-hum04
# T3 construct: Expressed as soluble IgG1 in CHO cells, tested as supernatant; The entries stop inside FR4
# BAP070-hum03 = biological target: T4, BAP070-hum03
# T4 construct: Expressed as soluble IgG1 in CHO cells, tested as supernatant; The entries stop inside FR4
# BAP070-hum06 = biological target: T5, BAP070-hum06
# T5 construct: Expressed as soluble IgG1 in CHO cells, tested as supernatant; The entries stop inside FR4
# BAP070-hum05 = biological target: T6, BAP070-hum05
# T6 construct: Expressed as soluble IgG1 in CHO cells, tested as supernatant; The entries stop inside FR4
# [1] = biological target: T7, BAP070-01 (human-mouse chimeric MAb 583)
# T7 construct: used as CHO cell supernatant; also called BAP070-1
# T7 sequence (VH, as listed by the source, chain 1 of 2): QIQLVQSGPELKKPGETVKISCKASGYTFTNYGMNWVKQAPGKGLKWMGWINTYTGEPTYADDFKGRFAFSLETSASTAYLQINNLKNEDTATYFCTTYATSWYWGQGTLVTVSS
# T7 sequence (VL, as listed by the source, chain 2 of 2): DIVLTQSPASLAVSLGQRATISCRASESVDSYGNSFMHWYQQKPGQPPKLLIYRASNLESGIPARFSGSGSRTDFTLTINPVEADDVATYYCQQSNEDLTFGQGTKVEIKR
# T4 sequence (VH, as listed by the source, chain 1 of 2): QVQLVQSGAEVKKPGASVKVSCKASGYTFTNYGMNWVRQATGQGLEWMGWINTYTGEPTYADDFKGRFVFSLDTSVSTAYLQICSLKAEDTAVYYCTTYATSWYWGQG
# T4 sequence (VL, as listed by the source, chain 2 of 2): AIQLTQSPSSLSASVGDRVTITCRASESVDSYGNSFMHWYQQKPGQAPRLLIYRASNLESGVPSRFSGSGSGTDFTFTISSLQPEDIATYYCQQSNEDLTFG
# T6 sequence (VH, as listed by the source, chain 1 of 2): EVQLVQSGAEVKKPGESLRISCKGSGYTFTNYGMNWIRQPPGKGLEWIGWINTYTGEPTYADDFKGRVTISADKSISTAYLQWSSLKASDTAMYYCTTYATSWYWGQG
# T6 sequence (VL, as listed by the source, chain 2 of 2): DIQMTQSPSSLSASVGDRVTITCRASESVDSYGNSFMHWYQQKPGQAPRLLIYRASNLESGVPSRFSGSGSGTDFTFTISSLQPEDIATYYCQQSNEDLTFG
# T3 sequence (VH, as listed by the source, chain 1 of 2): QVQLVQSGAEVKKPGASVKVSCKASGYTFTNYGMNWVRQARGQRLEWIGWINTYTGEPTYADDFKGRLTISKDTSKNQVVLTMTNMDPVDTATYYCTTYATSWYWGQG
# T3 sequence (VL, as listed by the source, chain 2 of 2): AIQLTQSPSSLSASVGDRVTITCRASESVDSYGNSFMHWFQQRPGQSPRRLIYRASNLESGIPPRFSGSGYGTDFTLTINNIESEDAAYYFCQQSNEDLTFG
# T1 sequence (VL, as listed by the source, chain 2 of 2): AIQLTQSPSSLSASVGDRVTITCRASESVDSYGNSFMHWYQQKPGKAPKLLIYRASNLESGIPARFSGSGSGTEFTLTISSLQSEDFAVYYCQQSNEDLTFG
binder,measurement,setting,value
B1,EC50,BAP070-hum02,0.0179 µg/mL
same,EC50,BAP070-hum01,0.0237 µg/mL
same,EC50,BAP070-hum04,0.0191 µg/mL
same,EC50,BAP070-hum03,0.0205 µg/mL
same,EC50,BAP070-hum06,0.0186 µg/mL
same,EC50,BAP070-hum05,0.0188 µg/mL
same,EC50,[1],0.0174 µg/mL
